Measured values taken from US20220098307A1 (WUHAN YZY BIOPHARMA, published 2022).

How the values were obtained:
[1] = biological target: T1, Human CD3ε (human, UniProt P07766 23-126); assay: flow cytometry, human T cells
T1 construct: CD3 on T cells isolated from human whole blood
In short: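 Cell binding by flow cytometry: antigen-positive tumor cells (e.g. MM.1S or RPMI 8226 for CD38) or CD3+ T cells, 2×10⁵/well, with antibody 3-fold diluted over 11 points from 3000 nM, 2 h at 4° C with shaking.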

[2] = biological target: T2, Monkey CD3 (monkey); assay: flow cytometry, monkey T cells
T2 construct: whole, on cells; also called CD3 of monkey CD3 positive T cells

[3] = biological target: T3, human CEA (human, UniProt P06731 35-685); assay: flow cytometry, human tumor cells (CEA+)
T3 sequence: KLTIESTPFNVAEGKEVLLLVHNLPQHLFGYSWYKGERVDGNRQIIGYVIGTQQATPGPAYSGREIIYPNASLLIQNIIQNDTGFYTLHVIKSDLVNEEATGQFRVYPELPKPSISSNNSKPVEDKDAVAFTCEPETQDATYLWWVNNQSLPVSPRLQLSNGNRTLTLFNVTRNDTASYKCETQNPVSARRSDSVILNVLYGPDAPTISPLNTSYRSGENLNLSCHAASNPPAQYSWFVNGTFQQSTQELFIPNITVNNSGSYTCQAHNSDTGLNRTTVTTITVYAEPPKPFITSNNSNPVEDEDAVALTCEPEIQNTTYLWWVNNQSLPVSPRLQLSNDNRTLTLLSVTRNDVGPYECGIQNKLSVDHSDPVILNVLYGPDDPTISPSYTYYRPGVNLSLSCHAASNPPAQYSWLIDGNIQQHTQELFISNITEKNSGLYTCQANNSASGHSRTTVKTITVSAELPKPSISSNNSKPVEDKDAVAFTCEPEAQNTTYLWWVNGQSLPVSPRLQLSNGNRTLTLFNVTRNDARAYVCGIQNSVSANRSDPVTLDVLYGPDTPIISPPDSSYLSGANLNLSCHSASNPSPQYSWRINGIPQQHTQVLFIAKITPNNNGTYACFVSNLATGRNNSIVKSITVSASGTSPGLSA
Text: 1) Cell preparation: T cells isolated from CD3-positive human whole blood were used for a CD3 end affinity detection of multifunctional antibody molecule; positive tumor cells of corresponding antigen were used for detecting affinity of tumor antigen; for example, CD38-positive MM. 1S cells (purchased from the Cell Resource Center of Shanghai Institutes for Biological Sciences, Chinese Academy of Sciences) or RPMI 8226 cells (purchased from the Cell Resource Center of Shanghai Institutes for Biological Sciences, Chinese Academy of Sciences) were used for CD38 antigen detection, and PD-L1 positive H358 cells (purchased from the Cell Resource Center of Shanghai Institutes for Biological Sciences, Chinese Academy of Sciences) were used for PD-L1 antigen detection, and so on. The cells were resuspended with 1% FBS-PBS, adjusted to a density of 4×10⁶/ml, and 50 μl of cells were taken from each well, and then plated at 2×10⁵ per well. Cell plating was operated on ice
2) Addition of the antibody: according to the experimental design, the antibody was diluted gradually, and dilution of antibody was operated on ice. For example, the initial concentration of antibody for dilution was 3000 nM, and the antibody was diluted by 3 times with 11 concentration gradients. The diluted antibody was added to a cell well at 50 μl per well, mixed well, and shaked and incubated at 4° C. 1100 rpm/min for 2 h; after washing, the cells were resuspend in 1% FBS-PBS, and a diluted secondary antibody PE anti-human IgG FC (Biolegend, 409304) was added with a final concentration of 8 ug/ml and a volume of 50 μl/well. At the same time, a well only added with cells and secondary antibody was set as a control, the components were mixed well, and incubated under shaking at 1100 rpm/min at 4° C. for 1 h;
5) Data analysis: the data was analyzed by a flow analysis software FlowJo 7.6 thereby obtaining an average fluorescence intensity of the specific antibody concentration, plotted by a Graphpad Prism 5 with the antibody concentration (nM) as an abscissa and the average fluorescence intensity as an ordinate; the EC50 value was calculated by the method of One site—Specific binding, and the EC50 value indicated the cell affinity of the antibody to the corresponding target antigen.

B1: CEA-M3-WT (bispecific antibody)
fusion heavy: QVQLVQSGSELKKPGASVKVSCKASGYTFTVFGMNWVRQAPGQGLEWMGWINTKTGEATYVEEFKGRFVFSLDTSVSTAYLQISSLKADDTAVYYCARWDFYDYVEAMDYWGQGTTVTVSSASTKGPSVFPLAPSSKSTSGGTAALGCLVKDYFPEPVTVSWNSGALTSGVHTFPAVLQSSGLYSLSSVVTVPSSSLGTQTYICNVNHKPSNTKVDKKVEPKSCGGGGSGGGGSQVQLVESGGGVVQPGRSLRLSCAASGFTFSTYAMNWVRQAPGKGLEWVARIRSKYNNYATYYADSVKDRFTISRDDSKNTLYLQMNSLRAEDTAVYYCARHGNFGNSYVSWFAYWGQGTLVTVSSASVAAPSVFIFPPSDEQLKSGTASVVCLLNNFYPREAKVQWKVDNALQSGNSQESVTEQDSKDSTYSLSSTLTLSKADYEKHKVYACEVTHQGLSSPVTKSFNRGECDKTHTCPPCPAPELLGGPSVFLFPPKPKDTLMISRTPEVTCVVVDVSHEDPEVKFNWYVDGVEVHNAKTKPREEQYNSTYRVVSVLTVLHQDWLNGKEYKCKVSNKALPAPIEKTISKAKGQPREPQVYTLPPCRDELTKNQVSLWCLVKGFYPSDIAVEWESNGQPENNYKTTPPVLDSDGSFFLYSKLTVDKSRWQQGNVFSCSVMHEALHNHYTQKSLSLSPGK
cross light: QTVVTQEPSLTVSPGGTVTLTCRSSTGAVTTSNYANWVQQKPGQAPRGLIGGTNKRAPGVPARFSGSLLGGKAALTLSGVQPEDEAEYYCALWYSNLWVFGGGTKVEIKSSASTKGPSVFPLAPSSKSTSGGTAALGCLVKDYFPEPVTVSWNSGALTSGVHTFPAVLQSSGLYSLSSVVTVPSSSLGTQTYICNVNHKPSNTKVDKKVEPKSC
heavy: QVQLVQSGSELKKPGASVKVSCKASGYTFTVFGMNWVRQAPGQGLEWMGWINTKTGEATYVEEFKGRFVFSLDTSVSTAYLQISSLKADDTAVYYCARWDFYDYVEAMDYWGQGTTVTVSSASTKGPSVFPLAPSSKSTSGGTAALGCLVKDYFPEPVTVSWNSGALTSGVHTFPAVLQSSGLYSLSSVVTVPSSSLGTQTYICNVNHKPSNTKVDKKVEPKSCDKTHTCPPCPAPELLGGPSVFLFPPKPKDTLMISRTPEVTCVVVDVSHEDPEVKFNWYVDGVEVHNAKTKPREEQYNSTYRVVSVLTVLHQDWLNGKEYKCKVSNKALPAPIEKTISKAKGQPREPQVCTLPPSRDELTKNQVSLSCAVKGFYPSDIAVEWESNGQPENNYKTTPPVLDSDGSFFLVSKLTVDKSRWQQGNVFSCSVMHEALHNRFTQKSLSLSPGK
light: DIQMTQSPSSLSASVGDRVTITCKASQNVGTNVAWYQQKPGKAPKLLIYSASYRYSGVPSRFSGSGSGTDFTFTISSLQPEDIATYYCHQYYTYPLFTFGQGTKVEIKRTVAAPSVFIFPPSDEQLKSGTASVVCLLNNFYPREAKVQWKVDNALQSGNSQESVTEQDSKDSTYSLSSTLTLSKADYEKHKVYACEVTHQGLSSPVTKSFNRGEC
notes: structure 3; CEA x CD3; CH2 WT; copies: 1 + 1 + 1 + 2
In the case of B1, the EC50 [1] is reported as 624 nM, the EC50 [2] is reported as 757 nM and the EC50 [3] is reported as 35.8 nM.

B2: CEA-M3-FES (bispecific antibody, human IgG1, kappa)
fusion heavy: QVQLVQSGSELKKPGASVKVSCKASGYTFTVFGMNWVRQAPGQGLEWMGWINTKTGEATYVEEFKGRFVFSLDTSVSTAYLQISSLKADDTAVYYCARWDFYDYVEAMDYWGQGTTVTVSSASTKGPSVFPLAPSSKSTSGGTAALGCLVKDYFPEPVTVSWNSGALTSGVHTFPAVLQSSGLYSLSSVVTVPSSSLGTQTYICNVNHKPSNTKVDKKVEPKSCGGGGSGGGGSQVQLVESGGGVVQPGRSLRLSCAASGFTFSTYAMNWVRQAPGKGLEWVARIRSKYNNYATYYADSVKDRFTISRDDSKNTLYLQMNSLRAEDTAVYYCARHGNFGNSYVSWFAYWGQGTLVTVSSASVAAPSVFIFPPSDEQLKSGTASVVCLLNNFYPREAKVQWKVDNALQSGNSQESVTEQDSKDSTYSLSSTLTLSKADYEKHKVYACEVTHQGLSSPVTKSFNRGECDKTHTCPPCPAPEFEGGPSVFLFPPKPKDTLMISRTPEVTCVVVDVSHEDPEVKFNWYVDGVEVHNAKTKPREEQYNSTYRVVSVLTVLHQDWLNGKEYKCKVSNKALPASIEKTISKAKGQPREPQVYTLPPCRDELTKNQVSLWCLVKGFYPSDIAVEWESNGQPENNYKTTPPVLDSDGSFFLYSKLTVDKSRWQQGNVFSCSVMHEALHNHYTQKSLSLSPGK
cross light: QTVVTQEPSLTVSPGGTVTLTCRSSTGAVTTSNYANWVQQKPGQAPRGLIGGTNKRAPGVPARFSGSLLGGKAALTLSGVQPEDEAEYYCALWYSNLWVFGGGTKVEIKSSASTKGPSVFPLAPSSKSTSGGTAALGCLVKDYFPEPVTVSWNSGALTSGVHTFPAVLQSSGLYSLSSVVTVPSSSLGTQTYICNVNHKPSNTKVDKKVEPKSC
heavy: QVQLVQSGSELKKPGASVKVSCKASGYTFTVFGMNWVRQAPGQGLEWMGWINTKTGEATYVEEFKGRFVFSLDTSVSTAYLQISSLKADDTAVYYCARWDFYDYVEAMDYWGQGTTVTVSSASTKGPSVFPLAPSSKSTSGGTAALGCLVKDYFPEPVTVSWNSGALTSGVHTFPAVLQSSGLYSLSSVVTVPSSSLGTQTYICNVNHKPSNTKVDKKVEPKSCDKTHTCPPCPAPEFEGGPSVFLFPPKPKDTLMISRTPEVTCVVVDVSHEDPEVKFNWYVDGVEVHNAKTKPREEQYNSTYRVVSVLTVLHQDWLNGKEYKCKVSNKALPASIEKTISKAKGQPREPQVCTLPPSRDELTKNQVSLSCAVKGFYPSDIAVEWESNGQPENNYKTTPPVLDSDGSFFLVSKLTVDKSRWQQGNVFSCSVMHEALHNRFTQKSLSLSPGK
light: DIQMTQSPSSLSASVGDRVTITCKASQNVGTNVAWYQQKPGKAPKLLIYSASYRYSGVPSRFSGSGSGTDFTFTISSLQPEDIATYYCHQYYTYPLFTFGQGTKVEIKRTVAAPSVFIFPPSDEQLKSGTASVVCLLNNFYPREAKVQWKVDNALQSGNSQESVTEQDSKDSTYSLSSTLTLSKADYEKHKVYACEVTHQGLSSPVTKSFNRGEC
notes: structure 3; CEA x CD3; CH2 FES; copies: 1 + 1 + 1 + 2
In the case of B2, the EC50 [1] is reported as 639 nM, the EC50 [2] is reported as 732 nM and the EC50 [3] is reported as 42.9 nM.

B3: CEA-M3-AAG (bispecific antibody)
fusion heavy: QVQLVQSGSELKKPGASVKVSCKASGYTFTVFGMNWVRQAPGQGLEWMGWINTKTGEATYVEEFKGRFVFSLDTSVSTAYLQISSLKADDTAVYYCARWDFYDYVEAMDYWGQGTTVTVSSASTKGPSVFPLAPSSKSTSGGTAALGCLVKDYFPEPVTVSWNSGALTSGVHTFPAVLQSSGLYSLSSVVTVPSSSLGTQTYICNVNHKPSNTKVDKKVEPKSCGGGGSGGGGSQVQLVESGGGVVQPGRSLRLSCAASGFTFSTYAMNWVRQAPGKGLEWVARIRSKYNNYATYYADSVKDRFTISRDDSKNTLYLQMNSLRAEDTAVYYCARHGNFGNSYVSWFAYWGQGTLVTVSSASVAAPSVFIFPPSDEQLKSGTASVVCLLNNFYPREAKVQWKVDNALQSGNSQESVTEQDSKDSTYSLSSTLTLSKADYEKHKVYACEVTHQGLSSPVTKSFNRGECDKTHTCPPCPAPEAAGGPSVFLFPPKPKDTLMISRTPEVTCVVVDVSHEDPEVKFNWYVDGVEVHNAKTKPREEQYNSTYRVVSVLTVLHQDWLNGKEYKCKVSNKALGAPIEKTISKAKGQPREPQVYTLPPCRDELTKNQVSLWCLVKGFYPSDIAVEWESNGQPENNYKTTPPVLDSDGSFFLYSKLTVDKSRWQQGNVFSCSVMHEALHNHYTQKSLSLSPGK
cross light: QTVVTQEPSLTVSPGGTVTLTCRSSTGAVTTSNYANWVQQKPGQAPRGLIGGTNKRAPGVPARFSGSLLGGKAALTLSGVQPEDEAEYYCALWYSNLWVFGGGTKVEIKSSASTKGPSVFPLAPSSKSTSGGTAALGCLVKDYFPEPVTVSWNSGALTSGVHTFPAVLQSSGLYSLSSVVTVPSSSLGTQTYICNVNHKPSNTKVDKKVEPKSC
heavy: QVQLVQSGSELKKPGASVKVSCKASGYTFTVFGMNWVRQAPGQGLEWMGWINTKTGEATYVEEFKGRFVFSLDTSVSTAYLQISSLKADDTAVYYCARWDFYDYVEAMDYWGQGTTVTVSSASTKGPSVFPLAPSSKSTSGGTAALGCLVKDYFPEPVTVSWNSGALTSGVHTFPAVLQSSGLYSLSSVVTVPSSSLGTQTYICNVNHKPSNTKVDKKVEPKSCDKTHTCPPCPAPEAAGGPSVFLFPPKPKDTLMISRTPEVTCVVVDVSHEDPEVKFNWYVDGVEVHNAKTKPREEQYNSTYRVVSVLTVLHQDWLNGKEYKCKVSNKALGAPIEKTISKAKGQPREPQVCTLPPSRDELTKNQVSLSCAVKGFYPSDIAVEWESNGQPENNYKTTPPVLDSDGSFFLVSKLTVDKSRWQQGNVFSCSVMHEALHNRFTQKSLSLSPGK
light: DIQMTQSPSSLSASVGDRVTITCKASQNVGTNVAWYQQKPGKAPKLLIYSASYRYSGVPSRFSGSGSGTDFTFTISSLQPEDIATYYCHQYYTYPLFTFGQGTKVEIKRTVAAPSVFIFPPSDEQLKSGTASVVCLLNNFYPREAKVQWKVDNALQSGNSQESVTEQDSKDSTYSLSSTLTLSKADYEKHKVYACEVTHQGLSSPVTKSFNRGEC
notes: structure 3; CEA x CD3; CH2 AAG; copies: 1 + 1 + 1 + 2
Work on B3 yielded an EC50 [1] of 646 nM, an EC50 [2] of 662 nM and an EC50 [3] of 30.1 nM.
